Data as given in article PMC12507022, “Widespread distribution of BpfA-mediated bisphenol F degradation among members of the Pseudomonadota and Actinomycetota” (The ISME Journal, 2025).

Columns and labels:
Test in all cases: HPLC, Michaelis-Menten fit
Conditions in all cases: 20 mM Tris-HCl pH 8.0, 30 °C, O2 as electron acceptor
[1] = substrate: COCc1ccc(O)cc1; assay type: biochemical, Penicillium simplicissimum
[2] = substrate: COc1cc(CO)ccc1O; assay type: biochemical, Penicillium simplicissimum
[3] = substrate: CCCc1ccc(O)c(OC)c1; assay type: biochemical, Penicillium simplicissimum
[4] = substrate: Oc1ccc(Cc2ccc(O)cc2)cc1; assay type: biochemical, Penicillium simplicissimum
[5] = substrate: COCc1ccc(O)cc1; assay type: biochemical, Rhodococcus jostii
[6] = substrate: COc1cc(CO)ccc1O; assay type: biochemical, Rhodococcus jostii
[7] = substrate: CCCc1ccc(O)c(OC)c1; assay type: biochemical, Rhodococcus jostii
[8] = substrate: Oc1ccc(Cc2ccc(O)cc2)cc1; assay type: biochemical, Rhodococcus jostii

B1: VAO (Penicillium simplicissimum) (protein)
chain: MSKTQEFRPLTLPPKLSLSDFNEFIQDIIRIVGSENVEVISSKDQIVDGSYMKPTHTHDPHHVMDQDYFLASAIVAPRNVADVQSIVGLANKFSFPLWPISIGRNSGYGGAAPRVSGSVVLDMGKNMNRVLEVNVEGAYCVVEPGVTYHDLHNYLEANNLRDKLWLDVPDLGGGSVLGNAVERGVGYTPYGDHWMMHSGMEVVLANGELLRTGMGALPDPKRPETMGLKPEDQPWSKIAHLFPYGFGPYIDGLFSQSNMGIVTKIGIWLMPNPRGYQSYLITLPKDGDLKQAVDIIRPLRLGMALQNVPTIRHILLDAAVLGDKRSYSSRTEPLSDEELDKIAKQLNLGRWNFYGALYGPEPIRRVLWETIKDAFSAIPGVKFYFPEDTPENSVLRVRDKTMQGIPTYDELKWIDWLPNGAHLFFSPIAKVSGEDAMMQYAVTKKRCQEAGLDFIGTFTVGMREMHHIVCIVFNKKDLIQKRKVQWLMRTLIDDCAANGWGEYRTHLAFMDQIMETYNWNNSSFLRFNEVLKNAVDPNGIIAPGKSGVWPSQYSHVTWKL
notes: synthetic gene, expressed and purified like BpfA (E. coli, Ni-NTA); contains flavin
In the case of B1, the Km [1] is reported as 72.0 ± 7.1 µM, the kcat [1] is reported as 3.9 ± 0.009 s⁻¹ and the kcat/Km [1] is reported as 54.2 a. For the same protein, the Km [2] was 140 ± 12.3 µM, the kcat [2] was 6.0 ± 0.2 s⁻¹ and the kcat/Km [2] was 42.9 b. The Km [3] was 71.4 ± 11.6 µM, the kcat [3] was 5 ± 0.02 s⁻¹ and the kcat/Km [3] was 70.4 b. The Km [4] was 205.6 ± 18.5 µM, the kcat [4] was 0.05 ± 0.001 s⁻¹ and the kcat/Km [4] was 0.2 b.

B2: EUGO (Rhodococcus jostii RHA1) (protein)
chain: MTRTLPPGVSDERFDAALQRFRDVVGDKWVLSTADELEAFRDPYPVGAAEANLPSAVVSPESTEQVQDIVRIANEYGIPLSPVSTGKNNGYGGAAPRLSGSVIVKTGERMNRILEVNEKYGYALLEPGVTYFDLYEYLQSHDSGLMLDCPDLGWGSVVGNTLDRGVGYTPYGDHFMWQTGLEVVLPQGEVMRTGMGALPGSDAWQLFPYGFGPFPDGMFTQSNLGIVTKMGIALMQRPPASQSFLITFDKEEDLEQIVDIMLPLRINMAPLQNVPVLRNIFMDAAAVSKRTEWFDGDGPMPAEAIERMKKDLDLGFWNFYGTLYGPPPLIEMYYGMIKEAFGKIPGARFFTHEERDDRGGHVLQDRHKINNGIPSLDELQLLDWVPNGGHIGFSPVSAPDGREAMKQFEMVRNRANEYNKDYAAQFIIGLREMHHVCLFIYDTAIPEAREEILQMTKVLVREAAEAGYGEYRTHNALMDDVMATFNWGDGALLKFHEKIKDALDPNGIIAPGKSGIWSQRFRGQNL
notes: as for B1
B2 was tested, and the Km [5] was 73.2 ± 1.5 µM, the kcat [5] was 4.1 ± 0.01 s⁻¹ and the kcat/Km [5] was 56.0 a. For the same protein, the Km [6] was 89.6 ± 11.3 µM, the kcat [6] was 5.9 ± 0.3 s⁻¹ and the kcat/Km [6] was 65.8 a. For the same protein, the Km [7] was 59.3 ± 0.7 µM, the kcat [7] was 4.8 ± 0.002 s⁻¹ and the kcat/Km [7] was 80.9 b. For the same protein, the Km [8] was 185.1 ± 11.3 µM, the kcat [8] was 0.04 ± 0.003 s⁻¹ and the kcat/Km [8] was 0.2 b.
